The values that follow come from patent US20230265151A1, “GIP/GLP1 CO-AGONIST COMPOUNDS” (priority 2020, published 2023).

Assay [1] addresses hGLP-1R (Homo sapiens, UniProt P43220). Briefly: cell-based or functional assay.
Assay [2] has as its target T1, human GIP receptor (human) (UniProt P48546).
T1 sequence (looked up): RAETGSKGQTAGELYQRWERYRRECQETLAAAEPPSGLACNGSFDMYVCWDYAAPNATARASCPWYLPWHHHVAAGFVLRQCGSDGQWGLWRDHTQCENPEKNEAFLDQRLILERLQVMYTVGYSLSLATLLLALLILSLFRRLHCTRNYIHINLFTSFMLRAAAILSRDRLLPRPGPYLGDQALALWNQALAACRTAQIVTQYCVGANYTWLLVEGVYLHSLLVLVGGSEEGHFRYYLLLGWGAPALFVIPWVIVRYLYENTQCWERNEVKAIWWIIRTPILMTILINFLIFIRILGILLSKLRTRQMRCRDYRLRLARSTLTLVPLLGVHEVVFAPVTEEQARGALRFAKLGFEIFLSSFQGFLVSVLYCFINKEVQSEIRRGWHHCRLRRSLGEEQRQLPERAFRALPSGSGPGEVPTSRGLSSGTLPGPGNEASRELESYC
Put plainly: cell-based or functional assay.

The target in assay [3] is human glucagon receptor (human) (UniProt P47871). Put plainly: cell-based or functional assay.
Assay [4] addresses T2, human GIP receptor (human, UniProt P48546 22-466).
T2 construct: whole, on cells; also called hGIPR; human glucose-dependent insulinotropic polypeptide receptor
T2 sequence (looked up): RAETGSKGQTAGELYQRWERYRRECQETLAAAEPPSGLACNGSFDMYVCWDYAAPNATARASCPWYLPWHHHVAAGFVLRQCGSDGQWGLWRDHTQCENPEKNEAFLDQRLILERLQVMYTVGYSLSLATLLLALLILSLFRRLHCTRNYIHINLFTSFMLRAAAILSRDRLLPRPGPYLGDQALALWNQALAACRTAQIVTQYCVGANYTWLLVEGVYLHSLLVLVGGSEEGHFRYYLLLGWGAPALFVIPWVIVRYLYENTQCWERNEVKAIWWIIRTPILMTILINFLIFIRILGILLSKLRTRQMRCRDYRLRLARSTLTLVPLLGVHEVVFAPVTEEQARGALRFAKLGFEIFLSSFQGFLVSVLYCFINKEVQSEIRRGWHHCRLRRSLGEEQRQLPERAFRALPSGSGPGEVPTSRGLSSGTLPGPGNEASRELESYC
Put plainly: SPA competition vs [125I]-GIP, hGIPR membranes. How it is done:
The binding buffer contains 25 mM HEPES, pH 7.4, 2.5 mM CaCl₂, 1 mM MgCl₂, 0.1% (w/v) bacitracin, 0.003% (w/v) TWEEN®-20, and Roche Complete™ Protease Inhibitors without EDTA. […] Plates are sealed and mixed on a plate shaker (setting 6) for 1 minute and read with a PerkinElmer Trilux MicroBeta® scintillation counter after 2.5 to 12 hours of incubation/settling time at room temperature.
(§1) Data are analyzed using four-parameter (curve maximum, curve minimum, IC₅₀, Hill slope) nonlinear regression routines (Genedata Screener, version 12.0.4, Genedata AG, Basal, Switzerland). […] Values for Kᵢ are reported as the geometric mean, with error expressed as the standard error of the mean (SEM) and n is equal to the number of independent replicates (determined in assays performed on different days). Geometric Means are calculated as follows: […]

Assay [5] addresses T3, human GLP-1 receptor (human, UniProt P43220 24-463).
T3 construct: whole, on cells; also called hGLP-1R; human glucagon-like peptide-1 receptor
Briefly: SPA competition vs [125I]-GLP-1, hGLP-1R membranes. How it is done: The binding buffer contains 25 mM HEPES, pH 7.4, 2.5 mM CaCl₂, 1 mM MgCl₂, 0.1% (w/v) bacitracin, 0.003% (w/v) TWEEN®-20, and Roche Complete™ Protease Inhibitors without EDTA.
as §1

With “Y-Aib-EGT-αMeF(2F)-TSD-4Pal-SI-αMeL-LD-Orn-K((2-[2-(2-Amino-ethoxy)-ethoxy]-acetyl)2-(γ-Glu)-CO-(CH2)14-CH3)AQ-Aib-EFI-(D-Glu)K((2-[2-(2-Amino-ethoxy)-ethoxy]-acetyl)2-(γ-Glu)-CO-(CH2)14-CH3)…-NH2 (peptide)”, the cAMP EC50 (1.0% HSA) in assay [1] was 1.73 nM; in assay [2], 0.148 nM; in assay [3], above 9950 nM. For the same molecule, the cAMP Emax (1.0% HSA) in assay [1] was determined as 102%; in assay [2] it was 98.2%.

In the case of “Y-Aib-EGT-αMeF(2F)-TSD-4Pal-SI-αMeL-LD-Orn-K((2-[2-(2-Amino-ethoxy)-ethoxy]-acetyl)2-(γ-Glu)-CO-(CH2)12-CO2H)AQ-Aib-EFIK((2-[2-(2-Amino-ethoxy)-ethoxy]-acetyl)2-(γ-Glu)-CO-(CH2)12-CO2H)-αMeY-…-NH2 (peptide)”, the cAMP EC50 (1.0% HSA) in assay [1] is 19.1 nM; in assay [2] it was 1.37 nM; in assay [3] it was above 9950 nM. For the same molecule, the cAMP Emax (1.0% HSA) in assay [1] is 106%; in assay [2], 89%.

Regarding “Y-Aib-EGT-αMeF(2F)-TSD-4Pal-SI-αMeL-LD-Orn-IAQ-Aib-K((2-[2-(2-Amino-ethoxy)-ethoxy]-acetyl)2-CO-(CH2)12-CO2H)FIK((2-[2-(2-Amino-ethoxy)-ethoxy]-acetyl)2-CO-(CH2)12-CO2H)-αMeY-…-NH2 (peptide)”, the cAMP EC50 (1.0% HSA) was 13.1 nM in assay [1], 0.866 nM in assay [2] and above 9950 nM in assay [3]. The cAMP Emax (1.0% HSA) worked out at 105% in assay [1] and 86.2% in assay [2].

With “Y-Aib-EGT-αMeF(2F)-TSD-4Pal-SI-αMeL-LD-Orn-K((2-[2-(2-Amino-ethoxy)-ethoxy]-acetyl)2-(γ-Glu)-(4-(4-tert-butylphenyl)butanoyl))AQ-Aib-EFIE-K((2-[2-(2-Amino-ethoxy)-ethoxy]-acetyl)2-(γ-Glu)-(4-(4-tert-butylphenyl)butanoyl))…-NH2 (peptide)”, the cAMP EC50 (1.0% HSA) in assay [1] is 5.79 nM; in assay [2], 0.0831 nM; in assay [3], above 9950 nM. The figures for the cAMP Emax (1.0% HSA) in assay [1] and in assay [2] were 102% and 92.4%, respectively.

For the molecule “Y-Aib-EGT-αMeF(2F)-TSD-4Pal-αMeS-I-αMeL-LD-Orn-K((2-[2-(2-Amino-ethoxy)-ethoxy]-acetyl)2-(γ-Glu)-CO-(CH2)12-CO2H)AQ-Aib-EFIK((2-[2-(2-Amino-ethoxy)-ethoxy]-acetyl)2-(γ-Glu)-CO-(CH2)12-CO2H)-αMeY-…-NH2 (peptide)”, the values for the cAMP EC50 (1.0% HSA) in assay [1], in assay [2] and in assay [3] were 17.9 nM, 2.03 nM and above 9950 nM, respectively. Besides, the figures for the cAMP Emax (1.0% HSA) in assay [1] and in assay [2] were 108% and 80.4%, respectively.

B1: Y-Aib-EGT-αMeF(2F)-TSD-aMeV-SI-αMeL-LD-Orn-K((2-[2-(2-Amino-ethoxy)-ethoxy]-acetyl)2-(γ-Glu)-CO-(CH2)12-CO2H)AQ-Aib-EFI-(D-Glu)-αMeY-LIEGGK((2-[2-(2-Amino-ethox … (peptide)
peptide: YXEGTXTSDXSIXLDXKAQXEFIXXLIEGGKSSGAPPPS
modifications: Aib2, αMeF(2F)6, αMeV10, αMeL13, Orn16, K17(Z1), Aib20, D-Glu24, αMeY25, K31(Z1), C-term NH2; Z1=AEEA2-(γ-Glu)-CO-(CH2)12-CO2H
Broadly, the Ki is a dissociation constant, usually derived from enzyme kinetics or from competition with a known ligand. Regarding B1, the Ki in assay [4] was determined as 0.0832 nM; in assay [5], 1.16 nM.

B2: Y-Aib-EGT-αMeF(2F)-TSD-4Pal-SI-αMeL-LD-Orn-K((2-[2-(2-Amino-ethoxy)-ethoxy]-acetyl)2-(γ-Glu)-(10-(4-carboxyphenoxy)decanoyl))AQ-Aib-EFIK((2-[2-(2-Amino-ethoxy)- … (peptide)
peptide: YXEGTXTSDXSIXLDXKAQXEFIKXLIEGGPSSGAPPPS
modifications: Aib2, αMeF(2F)6, 4Pal10, αMeL13, Orn16, K17(Z1), Aib20, K24(Z1), αMeY25, C-term NH2; Z1=AEEA2-(γ-Glu)-(10-(4-carboxyphenoxy)decanoyl)
Take B2: the Ki in assay [4] came to 0.0314 nM; in assay [5], 0.777 nM.

B3: Y-Aib-EGT-αMeF(2F)-TSD-4Pal-SI-αMeL-LD-Orn-K((2-[2-(2-Amino-ethoxy)-ethoxy]-acetyl)2-(γ-Glu)-CO-(CH2)10-CO2H)AQ-Aib-EFI-(D-Glu)-αMeY-LIEGGK((2-[2-(2-Amino-ethox … (peptide)
peptide: YXEGTXTSDXSIXLDXKAQXEFIXXLIEGGKSSGAPPPS
modifications: Aib2, αMeF(2F)6, 4Pal10, αMeL13, Orn16, K17(Z1), Aib20, D-Glu24, αMeY25, K31(Z1), C-term NH2; Z1=AEEA2-(γ-Glu)-CO-(CH2)10-CO2H
Consider B3, for which the Ki came out at 0.145 nM in assay [4] and 2.99 nM in assay [5].

B4: Y-Aib-EGT-αMeF(2F)-TSD-4Pal-SI-αMeL-LD-Orn-K((2-[2-(2-Amino-ethoxy)-ethoxy]-acetyl)2-(γ-Glu)-CO-(CH2)12-CO2H)AQ-Aib-E-3FPhe-I-(D-Glu)-αMeY-LIEGGK((2-[2-(2-Amino … (peptide)
peptide: YXEGTXTSDXSIXLDXKAQXEXIXXLIEGGKSSGAPPPS
modifications: Aib2, αMeF(2F)6, 4Pal10, αMeL13, Orn16, K17(Z1), Aib20, 3FPhe22, D-Glu24, αMeY25, K31(Z1), C-term NH2; Z1=AEEA2-(γ-Glu)-CO-(CH2)12-CO2H
Turning to B4, the Ki in assay [4] worked out at 0.161 nM; in assay [5], 1.52 nM.

B5: Y-Aib-EGT-αMeF(2F)-TSDK((2-[2-(2-Amino-ethoxy)-ethoxy]-acetyl)2-(γ-Glu)-CO-(CH2)12-CO2H)SI-αMeL-LD-Orn-K((2-[2-(2-Amino-ethoxy)-ethoxy]-acetyl)2-(γ-Glu)-CO-(CH2 … (peptide)
peptide: YXEGTXTSDKSIXLDXKAQXEFIXXLIEGGPSSGAPPPS
modifications: Aib2, αMeF(2F)6, K10(Z1), αMeL13, Orn16, K17(Z1), Aib20, D-Glu24, αMeY25, C-term NH2; Z1=AEEA2-(γ-Glu)-CO-(CH2)12-CO2H
On to B5, for which the Ki in assay [4] worked out at 0.378 nM; in assay [5], 6.48 nM.

B6: Y-Aib-EGT-αMeF(2F)-TSD-4Pal-SI-αMeL-LD-Orn-K((2-[2-(2-Amino-ethoxy)-ethoxy]-acetyl)2-(γ-Glu)-CO-(CH2)12-CO2H)AQ-Aib-E-(3ClPhe)-I-(D-Glu)-αMeY-LIEGGK((2-[2-(2-Am … (peptide)
peptide: YXEGTXTSDXSIXLDXKAQXEXIXXLIEGGKSSGAPPPS
modifications: Aib2, αMeF(2F)6, 4Pal10, αMeL13, Orn16, K17(Z1), Aib20, 3ClPhe22, D-Glu24, αMeY25, K31(Z1), C-term NH2; Z1=AEEA2-(γ-Glu)-CO-(CH2)12-CO2H
In the case of B6, the Ki is 0.132 nM in assay [4] and 1.59 nM in assay [5].
